Test results published in PMC11931385, “Structural and functional analysis of cancer-associated missense variants in the retinoblastoma protein pocket domain” (The Journal of Biological Chemistry, 2025).
Positions count from the first letter of the chain named. Names may count otherwise. No end group written: not given here. TMR = tetramethyl rhodamine dye

B1: TMR-E2F1^TD, peptide of the E2F1 transactivation domain (peptide)
peptide: {TMR}-GEGIRDLFDCDFGDLTPLD
notes: also called E2F^TD; source: synthetic peptide, bought: GenScript
B2: TMR-E7^LxCxE, LxCxE peptide of the E7 oncoprotein from HPV (peptide)
peptide: DLYCYEQLN
modifications: also: TMR label, position not given here
notes: source: synthetic peptide, bought: GenScript

Experiments:
Assay in all cases: fluorescence polarisation; 37 °C, after the 25 °C reading ramped over 7 min to 37 °C and 2 min incubation; unlabeled Rb^P against 1.5 nM TMR-E2F1^TD or 7.5 nM TMR-E7^LxCxE; 25 mM Tris pH 8.0, 200 mM NaCl, 1 mM DTT, 0.1% Tween-20; apparent Kd
Conditions in all cases: both partners purified
Rb^P K462T = molecular target: T1, Rb^P K462T (human, UniProt P06400 380-788, K462T)
T1 construct: also called variant 9
T1 sequence (looked up): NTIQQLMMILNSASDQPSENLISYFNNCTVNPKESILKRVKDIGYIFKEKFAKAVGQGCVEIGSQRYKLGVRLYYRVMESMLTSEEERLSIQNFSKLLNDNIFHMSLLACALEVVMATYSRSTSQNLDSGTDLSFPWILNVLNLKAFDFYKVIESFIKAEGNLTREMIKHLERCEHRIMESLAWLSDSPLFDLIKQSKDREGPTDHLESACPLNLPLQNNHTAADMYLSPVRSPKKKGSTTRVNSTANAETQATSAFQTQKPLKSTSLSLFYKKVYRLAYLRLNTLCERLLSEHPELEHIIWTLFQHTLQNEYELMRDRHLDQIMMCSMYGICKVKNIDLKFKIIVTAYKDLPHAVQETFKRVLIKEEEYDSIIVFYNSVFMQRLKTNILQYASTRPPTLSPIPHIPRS

Rb^P E539D = molecular target: T2, Rb^P E539D (human, UniProt P06400 380-788, E539D)
T2 construct: also called variant 24
T2 sequence (looked up): T1 sequence (looked up) with T83K, E160D

Rb^P R621H = molecular target: T3, Rb^P R621H (human, UniProt P06400 380-788, R621H)
T3 construct: also called variant 42
T3 sequence (looked up): T1 sequence (looked up) with T83K, R242H

Rb^P V754G = molecular target: T4, Rb^P V754G (human, UniProt P06400 380-788, V754G)
T4 construct: also called variant 73
T4 sequence (looked up): T1 sequence (looked up) with T83K, V375G

Rb^P T664A = molecular target: T5, Rb^P T664A (human, UniProt P06400 380-788, T664A)
T5 construct: also called variant 50
T5 sequence (looked up): T1 sequence (looked up) with T83K, T285A

| Binder | Kd (Rb^P K462T) [nM] | Kd (Rb^P E539D) [nM] | Kd (Rb^P R621H) [nM] | Kd (Rb^P V754G) [nM] | Kd (Rb^P T664A) [nM] |
| --- | --- | --- | --- | --- | --- |
| B1 | 51 | 104 | 48 | 34 | 24 |
| B2 | 16 | 19 | 18 | 15 | 16 |
